The text below walks through data of PMC12809912 (2025).

The assay has as its target T1, biotinylated DEFA5 epitope peptide Biotin-RATCYCRTGRCAT (human, cysteine pairing not given here).
T1 peptide: Biotin-RATCYCRTGRCAT
Nature of the assay: SPR. (In general: SPR reads the build-up and loss of mass on a sensor chip optically.)

Ends that are not written are not given here. * marks the point of attachment. Biotin = O=C1N[C@H]2[C@H](CS[C@H]2CCCCC(=O)*)N1

B1: mouse monoclonal antibody clone 4F5 (anti-DEFA5) (antibody, V domains shown)
VH: QVQLQQSGAELVRPGASVKMSCKALGYTFFDYEMHWMKQTPVYGLEWIGAIHPGSGDTAYNQKFKGKATLTADKSSNTAYMELSSLTSEDSAVYYCTREGTVVAPFDYWGQGTTLTVSS
VL: DVLMTQTPLSLPVSLGDQASISCRSSQSIVHSNGNTYLEWYLQKPGQSPKLLINKVSNRFSGVPDRFSGSGSGTDFTLKISRVEAEDLGVYYCFQGSYVPYTFGGGTKLEIK
modifications: Fc glycosylation, G1F lower and afucosylated G0 ~15 % (intact ESI-MS)
Turning to B1, the koff stood at 0.00261 s⁻¹.

B2: mouse monoclonal antibody clone 1A8 (anti-DEFA5) (antibody, V domains shown)
VH: B1 VH
VL: B1 VL
modifications: Fc glycosylation, mainly the G1F glycoform (intact ESI-MS)
On to B2, for which the off-rate (koff) was determined as 0.00253 s⁻¹.

For orientation: koff means the first-order rate constant of dissociation. High values mean a short-lived complex, low ones a long-lived complex.
